# B1: Inducible T-cell costimulator (Homo sapiens), Q9Y6W8 (parent)
# chain: MKSGLWYFFLFCLRIKVLTGEINGSANYEMFIFHNGGVQILCKYPDIVQQFKMQLLKGGQILCDLTKTKGSGNTVSIKSLKFCHSQLSNNSVSFFLYNLDHSHANYYFCNLSIFDPPPFKVTLTGGYLHIYESQLCCQLKFWLPIGCAAFVVVCILGCILICWLTKKKYSSSVHDPNGEYMFMRAVNTAKKSRLTDVTL
# partner: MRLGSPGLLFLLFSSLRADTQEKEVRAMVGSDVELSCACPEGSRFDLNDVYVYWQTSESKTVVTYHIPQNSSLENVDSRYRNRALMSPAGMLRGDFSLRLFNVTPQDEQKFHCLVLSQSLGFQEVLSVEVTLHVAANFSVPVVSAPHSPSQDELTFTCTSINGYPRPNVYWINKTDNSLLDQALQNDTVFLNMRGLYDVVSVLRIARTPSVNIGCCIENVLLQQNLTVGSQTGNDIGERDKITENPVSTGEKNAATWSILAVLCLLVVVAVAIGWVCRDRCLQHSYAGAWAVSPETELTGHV
# Variants of: B1
# Details: with icosl_human ICOSLG
row,effect of a mutation on the interaction,Variant
1,decreasing interaction strength,D64S
2,disrupting interaction strength,F114S
3,disrupting interaction strength,F119S
4,increasing interaction strength,S76E
5,disrupting interaction strength,K69S
6,disrupting interaction strength,D115S
7,increasing interaction strength,K52S
8,disrupting interaction strength,K67S
9,decreasing interaction strength,Q50S
10,decreasing interaction strength,Q49S
11,disrupting interaction strength,F51S
12,disrupting interaction strength,P117S
